Key:
[1] = molecular target: T1, human IL-13 (human, UniProt P35225); experiment: SPR, 25C, average of 3 determinations
[2] = molecular target: T1, human IL-13; experiment: SPR, average

T1 sequence (P35225 25-146): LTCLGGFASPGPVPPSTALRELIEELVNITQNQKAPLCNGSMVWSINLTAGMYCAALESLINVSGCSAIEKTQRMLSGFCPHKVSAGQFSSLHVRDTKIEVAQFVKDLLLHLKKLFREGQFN

Kd [1]: 0.015 nM
Kd [2]: 0.0134 nM
B1: Ab652 Fab (antibody, V domains shown)
VH: QVTLKESGPVLVKPTETLTLTCTVSGFSLSNARMGVSWIRQPPGKALEWLAHIFSNDEKSYSTSLKSRLTISKDTSKSQVVLTMTNMDPVDTATYYCARIYFDYWGQGTLVTVS
VL: DIQMTQSPSSLSASVGDRVTITCLASEDISNYLAWYQQKPGKAPKLLIYHTSRLQDGVPSRFSGSGSGTDFTLTISSLQPEDFATYYCQQGYRFPLTFGGGTKVEIK
